Earlier results in article PMC4715488.

Molecular target: GPP130 (Homo sapiens) (UniProt O00461)
Chain of UniProt O00461 (O00461 2-696): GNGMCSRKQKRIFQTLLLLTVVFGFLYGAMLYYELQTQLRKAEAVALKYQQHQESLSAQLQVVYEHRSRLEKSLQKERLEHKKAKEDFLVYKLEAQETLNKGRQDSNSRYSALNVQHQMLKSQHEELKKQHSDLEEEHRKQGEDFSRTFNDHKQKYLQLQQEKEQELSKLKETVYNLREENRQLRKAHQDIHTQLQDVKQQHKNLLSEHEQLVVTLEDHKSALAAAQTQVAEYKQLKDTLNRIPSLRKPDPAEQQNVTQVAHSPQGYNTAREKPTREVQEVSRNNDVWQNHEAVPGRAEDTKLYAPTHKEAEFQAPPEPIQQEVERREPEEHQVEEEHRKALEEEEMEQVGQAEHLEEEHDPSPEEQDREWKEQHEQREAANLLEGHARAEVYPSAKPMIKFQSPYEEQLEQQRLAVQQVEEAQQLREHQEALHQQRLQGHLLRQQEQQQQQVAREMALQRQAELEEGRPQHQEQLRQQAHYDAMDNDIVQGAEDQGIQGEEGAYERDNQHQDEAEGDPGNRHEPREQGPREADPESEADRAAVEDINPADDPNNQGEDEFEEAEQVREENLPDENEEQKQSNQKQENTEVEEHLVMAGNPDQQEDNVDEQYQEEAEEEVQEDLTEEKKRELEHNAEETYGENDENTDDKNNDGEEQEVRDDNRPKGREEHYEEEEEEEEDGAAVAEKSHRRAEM

Shiga toxin 1 B subunit (STx1B) (from UniProt Q32GM0)
Kd: 150 nM
